The experiment has as its target AchR (Homo sapiens, UniProt P02708). As to the kind of experiment: ELISA of screened peptide phages on AchR versus streptavidin (OD450). As to conditions: absorbance at 450 nm. Format: binding. In a few lines:
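Reported as the ratio of AchR to streptavidin OD450, with TMB read-out after HRP anti-M13 detection. Wells coated with 5 μg/ml target overnight at 4 °C and BSA-blocked, then incubated 1 h at 30 °C with helper-rescued phage from individual plaques.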
(In general: An ELISA detects its analyte on a solid surface through an enzyme-linked reagent.)

Where [1] appears, read: ELISA of selected 11-mer (L2) peptide phages on AchR, Spep-2 positive control.
[2] abbreviates: phage ELISA, 5 μg/ml AchR, 4th and 5th round biopanning phages.
[3] abbreviates: ELISA of selected 14-mer (L3) peptide phages on AchR, Spep-2 positive control.

Sequence of AchR (P02708 21-457): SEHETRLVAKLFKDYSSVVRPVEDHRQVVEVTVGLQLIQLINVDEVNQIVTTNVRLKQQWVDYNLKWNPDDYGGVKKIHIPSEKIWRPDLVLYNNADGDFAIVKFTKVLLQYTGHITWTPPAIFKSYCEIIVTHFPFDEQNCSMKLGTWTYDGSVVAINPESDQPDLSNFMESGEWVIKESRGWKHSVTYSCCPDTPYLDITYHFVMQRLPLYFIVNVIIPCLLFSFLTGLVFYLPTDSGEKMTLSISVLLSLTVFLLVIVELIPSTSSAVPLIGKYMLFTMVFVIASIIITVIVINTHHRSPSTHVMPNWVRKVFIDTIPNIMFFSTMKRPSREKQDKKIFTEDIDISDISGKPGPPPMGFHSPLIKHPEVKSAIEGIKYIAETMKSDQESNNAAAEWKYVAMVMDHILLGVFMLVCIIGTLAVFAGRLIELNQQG

With “L2-46 (CYWKAKRYPMR; AchR binding peptide) [Peptide L2-46]”, the OD under setting [1] worked out at 0.704. With RGKRQLGR [Peptide L1-3], under setting [2], the OD came to 0.649. Take “L3-156 (IVPRDRKQALRWTN; AchR binding peptide) [Peptide L3-156]”: the OD under setting [3] is recorded as 0.799.

The substance “L3-55 (HFPRARRFEHRCML; AchR binding peptide) [Peptide L3-55]” registered an OD under setting [3] of 0.706. RVRRSWIR [Peptide L1-72] came in with an OD under setting [2] of 0.616. RSRRCPVK [Peptide L1-119]: under setting [2], the OD was found to be 0.463. Still for that read-out and setting: with RSKKSLYR [Peptide L1-53] the figure was 0.78.

For “L3-70 (DHERERRLWSRFPF; AchR binding peptide) [Peptide L3-70]”, the OD under setting [3] was found to be 0.781.

Turning to “L2-154 (NPFKYKKICPK; AchR binding peptide) [Peptide L2-154]”, under setting [1], the OD is 0.736. Under setting [2], KWRREQFR [Peptide L1-76] yielded an OD of 0.588.

For KMRRIMYK [Peptide L1-64], the OD under setting [2] is given as 0.589. Consider “L2-143 (AIIKFRKVQWK; AchR binding peptide) [Peptide L2-143]”, for which the OD under setting [1] was 0.401. Under setting [3], “L3-45 (PGNRMKKYQNRVHG; AchR binding peptide) [Peptide L3-45]” showed an OD of 0.735.

In the case of RLKRAPGR [Peptide L1-33], the OD under setting [2] came to 0.529.

In turn, “L3-166 (EYVKAKRTPWKYVV; AchR binding peptide) [Peptide L3-166]” gave an OD under setting [3] of 0.629. Same read-out and setting: the figure for “L3-140 (EHCKWKKMFDKEGE; AchR binding peptide) [Peptide L3-140]” is 0.607. As for “L2-45 (WIYRGRKDVAK; AchR binding peptide) [Peptide L2-45]”, under setting [1], the OD is 0.584. In the case of “L3-150 (YLSRTKRWLARYVE; AchR binding peptide) [Peptide L3-150]”, the OD under setting [3] is 0.518.

In turn, “L2-21 (MVMKWKRWNQR; AchR binding peptide) [Peptide L2-21]” showed an OD under setting [1] of 0.719. With RTKKENVK [Peptide L1-180], the OD under setting [2] is 0.618. “L2-72 (APHKWRKQEQR; AchR binding peptide) [Peptide L2-72]” came in with an OD under setting [1] of 0.638. On to RGRRWFVK [Peptide L1-28], for which the OD under setting [2] was found to be 0.656. “L2-13 (GGLKSKRLTTR; AchR binding peptide) [Peptide L2-13]” gave an OD under setting [1] of 0.855. Substance KPRRPDTR [Peptide L1-109] returned an OD under setting [2] of 0.542. Under setting [2], KEKKLVWK [Peptide L1-174] yielded an OD of 0.596. The same measure, in the same setting: the figure for RPKKHQER [Peptide L1-158] is 0.605; for RWRRSVIK [Peptide L1-106] it is 0.417.

Under setting [3], “L3-110 (AWAKYKKVQPKHHT; AchR binding peptide) [Peptide L3-110]” yielded an OD of 0.538.

Turning to “L2-67 (KTGRSKRHRWR; AchR binding peptide) [Peptide L2-67]”, the OD under setting [1] came to 0.696. Turning to RIRKITWR [Peptide L1-194], the OD under setting [2] was determined as 0.636.

“L2-170 (QVHRNKRYTDR; AchR binding peptide) [Peptide L2-170]”: the OD under setting [1] is listed as 0.718. The same measure, in the same setting: with “L2-103 (QYNKGRKIHVR; AchR binding peptide) [Peptide L2-103]” the figure was 0.571.

Under setting [2], RIRRVSQR [Peptide L1-60] showed an OD of 0.484. For the substance “L3-103 (NDWKLRKDFWRNHF; AchR binding peptide) [Peptide L3-103]”, the OD under setting [3] worked out at 0.676.

In turn, KYKKSFTK [Peptide L1-198] returned an OD under setting [2] of 0.63.

Under setting [2], KIKRDLYK [Peptide L1-90] yielded an OD of 0.439. Substance “L2-32 (LYMRCKKQAPR; AchR binding peptide) [Peptide L2-32]” registered an OD under setting [1] of 0.64.

REKRYMAR [Peptide L1-91] returned an OD under setting [2] of 0.826. Turning to “L3-76 (QMGKFKKISLKNTF; AchR binding peptide) [Peptide L3-76]”, under setting [3], the OD is 0.701. “L3-1 (ALGRTKRLHMRVHV; AchR binding peptide) [Peptide L3-1]” yielded an OD under setting [3] of 0.853. In the case of RLKRGQFK [Peptide L1-85], the OD under setting [2] is 0.57. Take “L3-137 (QVVRLRRGKNRGTV; AchR binding peptide) [Peptide L3-137]”: the OD under setting [3] turned out to be 0.565. “L2-83 (HQQKCKKTTTK; AchR binding peptide) [Peptide L2-83]” gave an OD under setting [1] of 0.65. As for KVKKIYYR [Peptide L1-144], under setting [2], the OD was found to be 0.503.

The substance KDKRWANR [Peptide L1-77] yielded an OD under setting [2] of 0.636. “L2-106 (QRWKWRKSLAR; AchR binding peptide) [Peptide L2-106]” displayed an OD under setting [1] of 0.926.

On to “L2-174 (PLFKSRRAYVR; AchR binding peptide) [Peptide L2-174]”, for which, under setting [1], the OD was 0.693. The same measure, in the same setting: with “L2-76 (PWVRIRKMASR; AchR binding peptide) [Peptide L2-76]” the figure was 0.725.

In turn, “L3-190 (VHHKLRRVHLRLDV; AchR binding peptide) [Peptide L3-190]” returned an OD under setting [3] of 0.792. On to “L2-104 (PEDRQRKTWFK; AchR binding peptide) [Peptide L2-104]”, for which the OD under setting [1] was determined as 0.563.

Substance “L2-43 (LMDRTRRDMYK; AchR binding peptide) [Peptide L2-43]” registered an OD under setting [1] of 0.572.

“L2-157 (NFYKCRKLQCK; AchR binding peptide) [Peptide L2-157]”: the OD under setting [1] came out at 0.731. “L3-73 (WTCRMRKYQLRTSE; AchR binding peptide) [Peptide L3-73]” displayed an OD under setting [3] of 0.771. For the substance “L3-182 (FYLRERRHQLKTEF; AchR binding peptide) [Peptide L3-182]”, the OD under setting [3] was found to be 0.818.

On to KSRRMWGR [Peptide L1-183], for which, under setting [2], the OD came to 0.605. “L2-194 (HLEKHRRCEFK; AchR binding peptide) [Peptide L2-194]” registered an OD under setting [1] of 0.693. As for RFRKPTDR [Peptide L1-127], the OD under setting [2] turned out to be 0.412. Substance “L2-115 (VRAKHRKSSLR; AchR binding peptide) [Peptide L2-115]” displayed an OD under setting [1] of 0.837.

On to RIRRWWVR [Peptide L1-82], for which, under setting [2], the OD is on record as 0.596. For the substance “L2-127 (YIIRWKRQMTR; AchR binding peptide) [Peptide L2-127]”, the OD under setting [1] is given as 0.569.

Consider KLRKQKLR [Peptide L1-43], for which the OD under setting [2] was found to be 0.601. The same measure, in the same setting: the figure for KPKKGGWK [Peptide L1-148] is 0.426. Under setting [1], “L2-131 (MTLKHRRVYIK; AchR binding peptide) [Peptide L2-131]” yielded an OD of 0.462.

RPRRGHQK [Peptide L1-24] registered an OD under setting [2] of 0.742. On the same count and under the same terms, the figure for RHKRWSGR [Peptide L1-153] is 0.625. Still for that read-out and setting: with KHKRTAQR [Peptide L1-78] the figure was 0.642. Same read-out and setting: with KLKRAMLK [Peptide L1-169] the figure was 0.636. Under setting [2], KNKRWVFK [Peptide L1-141] showed an OD of 0.505. Under setting [3], “L3-56 (QISKLKRPSYRGDD; AchR binding peptide) [Peptide L3-56]” showed an OD of 0.703. The same measure, in the same setting: with “L3-106 (DLVRKRKTMLRQLV; AchR binding peptide) [Peptide L3-106]” the figure was 0.642. Regarding KWRREGFK [Peptide L1-12], the OD under setting [2] was determined as 0.691.

For “L3-117 (CGHKNKKWHNRMDP; AchR binding peptide) [Peptide L3-117]”, the OD under setting [3] was determined as 0.696. On the same count and under the same terms, the figure for “L3-178 (PDLKFRKHQDRTAI; AchR binding peptide) [Peptide L3-178]” is 0.755; for “L3-132 (TITRVKRASHKTPS; AchR binding peptide) [Peptide L3-132]” it is 0.619; for “L3-165 (YLVKLRRFWAKIDM; AchR binding peptide) [Peptide L3-165]” it is 0.771. Under setting [2], KFKKSAPR [Peptide L1-136] registered an OD of 0.392. Substance KGKRDSNK [Peptide L1-51] came in with an OD under setting [2] of 0.66. The same measure, in the same setting: with “GGRKKRRQRRRGGG [Peptide L3-202, reference compound]” the figure was 0.301. “L2-74 (CIMRVKRMWWK; AchR binding peptide) [Peptide L2-74]” yielded an OD under setting [1] of 0.651. On the same count and under the same terms, the figure for “L2-181 (PGARCRKQDVK; AchR binding peptide) [Peptide L2-181]” is 0.749.

Regarding RGKKAVRK [Peptide L1-20], under setting [2], the OD came to 0.619. Turning to “L3-146 (AVWRNRKDNVKASE; AchR binding peptide) [Peptide L3-146]”, the OD under setting [3] is 0.512.

Substance “L2-139 (SVLRCRKCSMK; AchR binding peptide) [Peptide L2-139]” yielded an OD under setting [1] of 0.528.

KTKRMLAK [Peptide L1-47] displayed an OD under setting [2] of 0.54. “L3-101 (QPWRQKKFWCRCWG; AchR binding peptide) [Peptide L3-101]” had an OD under setting [3] of 0.758. On the same count and under the same terms, the figure for “L3-59 (HVYKNRRVWGKGWP; AchR binding peptide) [Peptide L3-59]” is 0.659. Take “L3-102 (IMVKIRRCPARPLC; AchR binding peptide) [Peptide L3-102]”: the OD under setting [3] is recorded as 0.581.

Regarding KQRKPHGR [Peptide L1-67], under setting [2], the OD was determined as 0.593. As for KFKKHGVK [Peptide L1-21], the OD under setting [2] was determined as 0.65. With “L3-134 (YWFRIKRAHAKGCP; AchR binding peptide) [Peptide L3-134]”, the OD under setting [3] was found to be 0.653.

The substance “L2-180 (DPEKWRKFYDR; AchR binding peptide) [Peptide L2-180]” displayed an OD under setting [1] of 0.744.
